According to article PMC12126490, “The HP1 box of KAP1 organizes HP1α for silencing of endogenous retroviral elements in embryonic stem cells” (Nature Communications, 2025):

Assays:
[1] = tested on: DNA-induced HP1α phase separated droplets; assay: in vitro droplet assay; details: 50 µM HP1α, 0.18 µM 601 DNA
Excerpt: For droplet assays, cDNA of full-length HP1α was cloned into a pET28 expression vector. His-tag fusion HP1α was expressed in E. coli and purified as in ref. [51]. cDNA of the KAP1FR fragment (aa 114–834) was cloned into a pCAG-GFP expression vector, and the P486A/V488A/L490A mutant of GFP-KAP1FR was generated using overlap extension PCR. Purification of GFP-KAP1FR proteins was described in ref. [52].
For the droplet assay, Widom 601 DNA was amplified by PCR using a plasmid coding for 12× 601 DNA with primers as follows: 601 DNA_F: […] and 601 DNA_R: TGCACAGGATGTATATATCTGACAC. HP1α was concentrated to ~10 µg/µl using Amicon concentrators. The buffer changes for both HP1α and GFP-KAP1FR solutions were carried out using Zeba™ Spin Desalting Columns with a buffer containing 20 mM HEPES at pH 7.2, 75 mM KCl, and 1 mM DTT. For visualization of His-tagged-HP1α within the droplets, 500 ng of protein was labeled with the 647 N fluorescent label using the Monolith NT™ Protein Labeling Kit RED-NHS from Nano Temper. To form HP1α droplets, 50 µM of HP1α was incubated with 0.18 µM of 601 DNA for 3 min and dropped into ibidi chamber (µ-Slide 18 Well). Subsequently, 50 ng of the labeled HP1α and 100 ng of GFP-KAP1FR (wild type or mutant) were added into HP1α/DNA droplets. The images of the droplets were collected using a Nikon TiE microscope equipped with a Yokogawa CSU-W1 spinning-disk confocal unit (50 μm pinhole size), an Andor Borealis illumination unit, Andor ALC600 laser beam combiner (405 nm/488 nm/561 nm/640 nm), Andor IXON 888 Ultra EMCCD camera, and a Nikon 100×/1.45 NA oil immersion objective. The size and intensity of HP1α phase-separated droplets were analyzed using ImageJ.

[2] = tested on: endogenous HP1α in KAP1^−/− ESCs; assay: immunofluorescence of endogenous HP1α; type: cell-based; details: KAP1^−/− mouse ESCs stably expressing the GFP-labeled construct, anti-HP1α antibody, DAPI
Procedure: The constructs coding for GFP-KAP1RF and the P486A/V488A/L490A mutant were transfected into 1 ×10^5 KAP1^−/− mouse ESCs using Lipofectamine 3000 (Invitrogen). Forty-eight hours post-transfection, cells were trypsinized and plated at a colony density in selection medium containing 10 μg/ml blasticidin (Thermo Fisher Sci) for one week. The selection process was repeated once to establish stable GFP-KAP1 expressing cell lines.
For immunostaining, mouse ESCs were cultured on Geltrex-coated coverslips (Life Technologies) in DMEM supplemented with 16% fetal bovine serum, 0.1 mM β-mercaptoethanol (Invitrogen), 2 mM L-glutamine, 1× MEM non-essential amino acids, 100 U/ml penicillin, 100 µg/ml streptomycin (PAA), 2i (1 μM PD032591 and 3 μM CHIR99021 (Axon Medchem, Netherlands) and 1000 U/ml recombinant LIF (Millipore). Coverslips were rinsed twice with PBS (pH 7.4; 140 mM NaCl, 2.7 mM KCl, 6.5 mM Na2HPO4, 1.5 mM KH2PO4), followed by fixation with 3.7% formaldehyde (Sigma) for 10 min. Fixed cells were washed three times (10 min each) with PBST (PBS + 0.01% Tween-20), permeabilized in 0.5% Triton X-100 for 10 min, and washed twice (10 min each) with PBST. Primary and secondary antibodies were prepared in blocking solution (PBST + 3% BSA). […]

B1: GFP-KAP1FR-PVLmut: P486A/V488A/L490A mutant of GFP-KAP1FR impaired in HP1α binding (protein)
chain: VVDCPVCKQQCFSKDIVENYFMRDSGSKAATDAQDANQCCTSCEDNAPATSYCVECSEPLCETCVEAHQRVKYTKDHTVRSTGPAKSRDGERTVYCNVHKHEPLVLFCESCDTLTCRDCQLNAHKDHQYQFLEDAVRNQRKLLASLVKRLGDKHATLQKSTKEVRSSIRQVSDVQKRVQVDVKMAILQIMKELNKRGRVLVNDAQKVTEGQQERLERQHWTMTKIQKHQEHILRFASWALESDNNTALLLSKKLIYFQLHRALKMIVDPVEPHGEMKFQWDLNAWTKSAEAFGKIVAERPGTNSTGPAPMAPPRAPGPLSKQGSGSSQPMEVQEGYGFGSGDDPYSSAEPHVSGVKRSRSGEGEVSGLMRKVARASAERLDLDLTADSQPPVFKVFPGSTTEDYNLIVIERGAAAAATGQPGTAPAGTPGAPPLAGMAIVKEEETEAAIGAPPTATEGPETKPVLMALAEGPGAEGPRLASPSGSTSSGLEVVAPEGTSAPGGGPGTLDDSATICRVCQKPGDLVMCNQCEFCFHLDCHLPALQDVPGEEWSCSLCHVLPDLKEEDGSLSLDGADSTGVVAKLSPANQRKCERVLLALFCHEPCRPLHQLATDSTFSLDQPGGTLDLTLIRARLQEKLSPPYSSPQEFAQDVGRMFKQFNKLTEDKADVQSIIGLQRFFETRMNEAFGDTKFSAVLVEPPPMSLPGAGLSSQELSGGPGDG
modifications: left off: GFP, end not stated, kept
sequestration of 647N labeled HP1α into droplets ([1]; 20 mM HEPES pH 7.2, 75 mM KCl, 1 mM DTT, 100 ng GFP-KAP1FR, 50 ng labeled HP1α): unable to sequester 647N labeled HP1α into the condensed phase | localization of GFP-KAP1FR in droplets ([1]; confocal microscopy): concentrated at the periphery of the droplets | distribution of endogenous HP1α (puncta) [2]: more dispersed and formed smaller and fewer puncta
